Tested on: Escherichia coli TOP10
Assay: shrunken log2 fold change of peptide-encoding DNA abundance (4.5 h post-induction vs induction); higher = less antimicrobial activity (less host growth inhibition)
Settings: time post-induction: 4.5 h; library: site-saturation at positions 5, 18, 19, 20
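Note: peptides expressed intracellularly from a pBAD plasmid library in pooled LB shake-flask culture, induced with 0.3% L-arabinose, DNA abundance read by NGS, three biological replicates, DESeq2 with apeglm shrinkage.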

RRIRFRPPRLPRPRPRPPCLPRP and RRIRFRPPRLPRPRPRPPCSPRP are within 0.2 log units of each other in “shrunken log2 fold change” value: -0.0576 for the first, 0.0952 for the second.

Compared with RRIRFRPPRLPRPRPRPPDDPRP, RRIRFRPPRLPRPRPRPPDEPRP is higher in “shrunken log2 fold change” value: 0.371 for the first, 0.684 for the second.

Going from RRIRFRPPRLPRPRPRPPDHPRP to RRIRFRPPRLPRPRPRPPEQPRP, the “shrunken log2 fold change” value falls from 0.28 to -0.0209.

Compared with RRIRFRPPRLPRPRPRPPFAPRP, RRIRFRPPRLPRPRPRPPFRPRP is higher in “shrunken log2 fold change” value: 0.423 for the first, 1.84 for the second.

Compared with RRIRFRPPRLPRPRPRPPGGPRP, RRIRFRPPRLPRPRPRPPGQPRP is higher in “shrunken log2 fold change” value: 0.782 for the first, 1 for the second.

Compared with RRIRFRPPRLPRPRPRPPHYPRP, RRIRFRPPRLPRPRPRPPKDPRP is higher in “shrunken log2 fold change” value: -0.124 for the first, 0.248 for the second.

Compared with RRIRFRPPRLPRPRPRPPKFPRP, RRIRFRPPRLPRPRPRPPLAPRP is higher in “shrunken log2 fold change” value: 0.0968 for the first, 0.628 for the second.

RRIRFRPPRLPRPRPRPPLNPRP and RRIRFRPPRLPRPRPRPPMHPRP are within 0.2 log units of each other in “shrunken log2 fold change” value: 0.0971 for the first, 0.162 for the second.

Compared with RRIRFRPPRLPRPRPRPPMMPRP, RRIRFRPPRLPRPRPRPPNQPRP is higher in “shrunken log2 fold change” value: -0.0466 for the first, 0.23 for the second.

Compared with RRIRFRPPRLPRPRPRPPNRPRP, RRIRFRPPRLPRPRPRPPPEPRP is higher in “shrunken log2 fold change” value: 0.266 for the first, 1.28 for the second.

Compared with RRIRFRPPRLPRPRPRPPPSPRP, RRIRFRPPRLPRPRPRPPQYPRP is lower in “shrunken log2 fold change” value: 1.35 for the first, 0.0298 for the second.

Going from RRIRFRPPRLPRPRPRPPRYPRP to RRIRFRPPRLPRPRPRPPSAPRP, the “shrunken log2 fold change” value rises from 0.246 to 0.703.

Going from RRIRFRPPRLPRPRPRPPTGPRP to RRIRFRPPRLPRPRPRPPTYPRP, the “shrunken log2 fold change” value falls from 0.217 to -0.0496.

Compared with RRIRFRPPRLPRPRPRPPVDPRP, RRIRFRPPRLPRPRPRPPVFPRP is lower in “shrunken log2 fold change” value: 0.41 for the first, 0.138 for the second.

Going from RRIRFRPPRLPRPRPRPPVWPRP to RRIRFRPPRLPRPRPRPPWFPRP, the “shrunken log2 fold change” value falls from 0.622 to 0.033.

Compared with RRIRFRPPRLPRPRPRPPWQPRP, RRIRFRPPRLPRPRPRPPYGPRP is lower in “shrunken log2 fold change” value: 0.361 for the first, -0.0784 for the second.

Going from RRIRFRPPRLPRPRPRPPYNPRP to RRIRFRPPRLPRPRPRPQCCPRP, the “shrunken log2 fold change” value rises from -0.323 to -0.067.

RRIRFRPPRLPRPRPRPQDFPRP and RRIRFRPPRLPRPRPRPQEFPRP are within 0.2 log units of each other in “shrunken log2 fold change” value: -0.143 for the first, 0.0412 for the second.

RRIRFRPPRLPRPRPRPQFRPRP and RRIRFRPPRLPRPRPRPQGSPRP are within 0.2 log units of each other in “shrunken log2 fold change” value: -0.174 for the first, -0.0076 for the second.

RRIRFRPPRLPRPRPRPQHAPRP and RRIRFRPPRLPRPRPRPQHVPRP are within 0.2 log units of each other in “shrunken log2 fold change” value: -0.202 for the first, -0.315 for the second.

First: RRIRFRPPRLPRPRPRPQICPRP
Second: RRIRFRPPRLPRPRPRPQIMPRP
The “shrunken log2 fold change” value of the first is higher: -0.135 for the first, -0.736 for the second.

First: RRIRFRPPRLPRPRPRPQIPPRP
Second: RRIRFRPPRLPRPRPRPQLFPRP
The “shrunken log2 fold change” value of the first is lower: -0.475 for the first, 0.104 for the second.

RRIRFRPPRLPRPRPRPQMCPRP and RRIRFRPPRLPRPRPRPQMMPRP are within 0.2 log units of each other in “shrunken log2 fold change” value: -0.119 for the first, -0.313 for the second.

Going from RRIRFRPPRLPRPRPRPQNCPRP to RRIRFRPPRLPRPRPRPQNEPRP, the “shrunken log2 fold change” value falls from -0.195 to -0.603.

Compared with RRIRFRPPRLPRPRPRPQNYPRP, RRIRFRPPRLPRPRPRPQQPPRP is higher in “shrunken log2 fold change” value: -0.502 for the first, -0.00359 for the second.

Going from RRIRFRPPRLPRPRPRPQSKPRP to RRIRFRPPRLPRPRPRPQSRPRP, the “shrunken log2 fold change” value falls from 0.379 to 0.0257.

Compared with RRIRFRPPRLPRPRPRPQTFPRP, RRIRFRPPRLPRPRPRPQTSPRP is lower in “shrunken log2 fold change” value: -0.127 for the first, -0.449 for the second.

RRIRFRPPRLPRPRPRPQVKPRP and RRIRFRPPRLPRPRPRPQVSPRP are within 0.2 log units of each other in “shrunken log2 fold change” value: -0.279 for the first, -0.298 for the second.

RRIRFRPPRLPRPRPRPQWIPRP and RRIRFRPPRLPRPRPRPQWKPRP are within 0.2 log units of each other in “shrunken log2 fold change” value: -0.148 for the first, -0.0239 for the second.

Going from RRIRFRPPRLPRPRPRPQYAPRP to RRIRFRPPRLPRPRPRPQYIPRP, the “shrunken log2 fold change” value rises from -0.862 to -0.0295.

RRIRFRPPRLPRPRPRPRAQPRP and RRIRFRPPRLPRPRPRPRCPPRP are within 0.2 log units of each other in “shrunken log2 fold change” value: 0.191 for the first, 0.262 for the second.

RRIRFRPPRLPRPRPRPRCYPRP and RRIRFRPPRLPRPRPRPREYPRP are within 0.2 log units of each other in “shrunken log2 fold change” value: -0.473 for the first, -0.415 for the second.

First: RRIRFRPPRLPRPRPRPRFKPRP
Second: RRIRFRPPRLPRPRPRPRFTPRP
The “shrunken log2 fold change” value of the first is lower: -0.281 for the first, 0.0956 for the second.

Compared with RRIRFRPPRLPRPRPRPRFVPRP, RRIRFRPPRLPRPRPRPRGDPRP is higher in “shrunken log2 fold change” value: 0.181 for the first, 0.477 for the second.

Compared with RRIRFRPPRLPRPRPRPRHYPRP, RRIRFRPPRLPRPRPRPRIRPRP is higher in “shrunken log2 fold change” value: -0.477 for the first, -0.075 for the second.

Compared with RRIRFRPPRLPRPRPRPRITPRP, RRIRFRPPRLPRPRPRPRIVPRP is higher in “shrunken log2 fold change” value: -0.657 for the first, -0.267 for the second.

RRIRFRPPRLPRPRPRPRKFPRP and RRIRFRPPRLPRPRPRPRLHPRP are within 0.2 log units of each other in “shrunken log2 fold change” value: 0.171 for the first, 0.0811 for the second.

For RRIRFRPPRLPRPRPRPRMEPRP, the “shrunken log2 fold change” value was -0.00899.
